The supplement of paper PMC12764529
± gives the half width of the 95% confidence interval.

Assays:
[1] = folding stability dG unfold from trypsin proteolysis; higher = more stable
How it was run: (§1)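 Unfolding free energy was derived, per protease or combined, against a sequence-predicted unfolded-state K50 and a shared folded-state K50, starting from K50 inferred by Bayesian fitting of sequencing counts. Digestion with trypsin and chymotrypsin was carried out on designed mini-proteins under 80 residues without cysteine in a PA-tagged cDNA display construct. Only designs with AlphaFold2 dimer inter-PAE above 15 were kept.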

[2] = folding stability dG unfold from chymotrypsin proteolysis; higher = more stable
How it was run: as §1

[3] = folding stability dG unfold (combined trypsin and chymotrypsin); higher = more stable
How it was run: as §1

| Sequence | folding stability dG unfold [1] | folding stability dG unfold [2] | folding stability dG unfold [3] |
| --- | --- | --- | --- |
| SAGMTIILVGPNAKEAVEKVAEELRKRDVGPPVTVLVLEPGGKPVLRARVERRPPDPDRFVVTVEPVESAGG [r19_85_TrMRF] | 0.689 ± 0.079 kcal/mol | 1.41 ± 0.11 kcal/mol | 1.27 ± 0.098 kcal/mol |
| SAGMTITIPAPPSLSPEEAVALAIERVKEEYPELLTPGSEVNIVVIREDPATGTSQTLTVTVPFPEGIFSAG [r5_916_JUSTAS] | 1.98 ± 0.045 kcal/mol | 1.57 ± 0.044 kcal/mol | 1.79 ± 0.086 kcal/mol |
| SAGMTITTTTPAEAAALAEELAKKNPVLNVTITVVDPETGTVTTIPFAVPAPLPRPYFDPETGEVTLEGSAG [r5_870_TrMRF] | 1.1 ± 0.033 kcal/mol | 0.193 ± 0.18 kcal/mol | 0.779 ± 0.11 kcal/mol |
| SAGMTITVKPGEKVKVTIKVEVFDENGKLIKKEEKEVEITVKEGDEITIKIKLDKPVKVKIEIKIEKKSAGG [r19_295_TrROS_Hall] | 2.67 ± 0.17 kcal/mol | 2.01 ± 0.15 kcal/mol | 2.29 ± 0.25 kcal/mol |
| SAGMTIVIGAPPELSLEEAVEKAIEAVEALFPDKLKPGSKIKVIVRVYDPETGSVDEVTVEIDVPPGALSAG [r5_916_TrMRF] | 3.35 ± 0.22 kcal/mol | 1.99 ± 0.11 kcal/mol | 2.65 ± 0.1 kcal/mol |
| SAGMTIVVEVPKKDITPEELAKKLEERFGLKVVEIKVEEVEEDKVRVTIRFEETGETLELTAEEIKELLSAG [r5_550_TrROS_Hall] | 4.6 ± 0.34 kcal/mol | 3.81 ± 0.17 kcal/mol | 4.19 ± 0.16 kcal/mol |
| SAGMTLKEEEFELPDGSRRIRLTFTSEEELAAKLKELGFEKFNPLSPSESVDVTIPPDGVLSESLPKEGSAG [r5_941_JUSTAS] | 0.651 ± 0.061 kcal/mol | 1.86 ± 0.066 kcal/mol | 1.42 ± 0.11 kcal/mol |
| SAGMTLTLELPVPPDMSEEEARALALARVREEVAALSPGGATVTPVAVSVDPETGTVSLEVEVEVPPLASAG [r5_146_JUSTAS] | 1.17 ± 0.032 kcal/mol | 1.45 ± 0.042 kcal/mol | 1.35 ± 0.037 kcal/mol |
| SAGMTLVAVNRETGEVNVIELDPEDPELVTVTYPNGEKETFPLAEIAERLGLPVSLLLNDYDIERIYGSSAG [r5_156_TrMRF] | 1.95 ± 0.086 kcal/mol | 1.38 ± 0.057 kcal/mol | 1.71 ± 0.084 kcal/mol |
| SAGMTVSTETTTFTDPAGFETTVTTLTTTHPDGSVTSTPTTTVTAVPVPPPPAPVPVDPANPDNPALLSAGG [r19_12_JUSTAS] | 0.461 ± 0.038 kcal/mol | -0.509 ± 0.095 kcal/mol | 0.163 ± 0.025 kcal/mol |
| SAGMVATLYDPNLPPVSVGITETVTVPHPEGFTVTVTLSSDGTATVTPSDGSSTTLPDASEVRVTATPASAG [r5_869_JUSTAS] | 1.31 ± 0.035 kcal/mol | 0.921 ± 0.021 kcal/mol | 1.1 ± 0.044 kcal/mol |
| SAGMVEVLEEKTDPNSDLVTVTLYAPDVPDGFRVVVYPKDGVPIEISIKRGEEVVLKLPANVEKIEFIGSAG [r14_671_JUSTAS] | 2.55 ± 0.083 kcal/mol | 2.41 ± 0.044 kcal/mol | 2.51 ± 0.092 kcal/mol |
| SAGMVEVTVTIIPKKVKDKWVNEAVVSITVPGGPTSTITMPFGSKEEAIKYLKEKGLEVSEENVSVEIESAG [r5_233_JUSTAS] | 2.31 ± 0.12 kcal/mol | 3.395 ± 0.028 kcal/mol | 3.23 ± 0.097 kcal/mol |
| SAGMVIELKTEEEAKAKAEEIAKKNPEANVTLVVTDPETGVKTVIPVKIESPKPKPEFDKKNGKYKDKGSAG [r5_870_JUSTAS] | -0.126 ± 0.2 kcal/mol | -0.455 ± 0.45 kcal/mol | -0.0134 ± 0.35 kcal/mol |
| SAGMVIKVKVKNKDGEELELVIEIPEEELPEELTEEELKELAKKLAEELAKEGKVEVVEVEIVEPEELSAGG [r19_27_TrROS_Hall] | 2.39 ± 0.26 kcal/mol | 1.8 ± 0.13 kcal/mol | 2.03 ± 0.25 kcal/mol |
| SAGMVIPILLKPEPERPEEVEKKAIEFANKLKPLNLPNVKIKVYRAPYVDPETGKTTVLYLVLIEVEPPSAG [r5_49_TrMRF] | 1.83 ± 0.1 kcal/mol | 2.79 ± 0.13 kcal/mol | 2.4 ± 0.19 kcal/mol |
| SAGMVITVPSDVPVEELLELARELARELGGGRVEVRTHPDNPEIVTATIDIPGTGKRILIINAPPGVLASAG [r5_912_TrMRF] | 2.66 ± 0.038 kcal/mol | 2.37 ± 0.028 kcal/mol | 2.52 ± 0.048 kcal/mol |
| SAGMVIVDPKTKKKITFDKESGEIYIEVDGKKKKIKLKPGEKVEIEIIEKDGKLIIKIKANGKIIEIEPSAG [r5_858_TrROS_Hall] | 1.56 ± 0.17 kcal/mol | 2.09 ± 0.12 kcal/mol | 1.75 ± 0.2 kcal/mol |
| SAGMVKAKLKVIPVTVDGKPKLYVKVELEIPGGPKFELVFETGSPEKAKELLEKLGLKVKDEDIEIEESSAG [r5_233_TrMRF] | 2.83 ± 0.11 kcal/mol | 3.69 ± 0.14 kcal/mol | 3.34 ± 0.18 kcal/mol |
| SAGMVKITVPSSVGPVDPSKALTFEKDDTRYILVPGEVAKEIEEKYPDLPIEIEPMSEEEAEKILKELSAGG [r19_271_JUSTAS] | -0.0536 ± 0.2 kcal/mol | 0.624 ± 0.16 kcal/mol | 0.258 ± 0.41 kcal/mol |
| SAGMVLEYEGVDEEEKLLARAEELRAELRARHPRVRVELEVEVKPTPGNKYRYRVTLTIEPLAPDEARASAG [r5_936_JUSTAS] | 1.75 ± 0.11 kcal/mol | 2.09 ± 0.11 kcal/mol | 1.99 ± 0.15 kcal/mol |
| SAGMVRIETYTHPDGTLRLVVYRPETGERAVFEFPLEDPEKFREAVEELAERLREEGFPVEVDIRPTLPSAG [r5_815_TrMRF] | 3 ± 0.086 kcal/mol | 4.296 ± 0.023 kcal/mol | 3.97 ± 0.049 kcal/mol |
| SAGMVTLRVKLKDGRELEIQLASEEEIESLPPGAKVIPIPAESEEEALEAAARLLAEEEGLEIEEVEKVSAG [r5_119_TrROS_Hall] | 0.671 ± 0.022 kcal/mol | 0.564 ± 0.074 kcal/mol | 0.638 ± 0.049 kcal/mol |
| SAGMYLVKITVTNEDGEKKEITVLVEAETEEEAREAAEELARELAEKYPEKIVEVKVEVVKLPPEVEPSAGG [r19_335_TrROS_Hall] | 4.12 ± 0.19 kcal/mol | 4.77 ± 0.16 kcal/mol | 4.98 ± 0.66 kcal/mol |
| SAGMYTITISRLPGGEYEVRVTDAANGEEVARRPVASEEEARAEAERIAAEIAEADPDVEVRVSESDAESAG [r5_383_JUSTAS] | 2.51 ± 0.066 kcal/mol | 2.959 ± 0.023 kcal/mol | 2.83 ± 0.04 kcal/mol |
| SAGNIKIKEVEINDNTLTISYRMPGSGMWVKASIQADKGAIKIKSEYYPPKGKPIGEEEFTVPLDELKLSAG [r5_308_TrROS] | 0.979 ± 0.042 kcal/mol | 1.74 ± 0.31 kcal/mol | 1.45 ± 0.28 kcal/mol |
